# Reference: US20230391860A1 (CANON MEDICAL SYSTEMS, published 2023)
# T1: mCRP (19) (human)
# T1 peptide: QTDMSRKAFVC
# T2: mCRP (29) (human)
# T2 peptide: FPKESDTSYVC
# T3: mCRP (39) (human)
# T3 peptide: SLKAPLTKPLC
# T4: mCRP (49) (human)
# T4 peptide: KAFTVCLHFYC
# T5: mCRP (59) (human)
# T5 peptide: TELSSTRGYSC
# T6: mCRP (69) (human)
# T6 peptide: IFSYATKRQDC
# T7: mCRP (79) (human)
# T7 peptide: NEILIFWSKDC
# T8: mCRP (89) (human)
# T8 peptide: IGYSFTVGGSC
# T9: mCRP (99) (human)
# T9 peptide: EILFEVPEVTC
# T10: mCRP (109) (human)
# T10 peptide: VAPVHICTSWC
# T11: mCRP (119) (human)
# T11 peptide: ESASGIVEFWC
# T12: mCRP (129) (human)
# T12 peptide: VDGKPRVRKSC
# T13: mCRP (139) (human)
# T13 peptide: LKKGYTVGAEC
# T14: mCRP (149) (human)
# T14 peptide: ASIILGQEQDC
# T15: mCRP (159) (human)
# T15 peptide: SFGGNFEGSQC
# T16: mCRP (169) (human)
# T16 peptide: SLVGDIGNVNC
# T17: mCRP (179) (human)
# T17 peptide: MWDFVLSPDEC
# T18: mCRP (189) (human)
# T18 peptide: INTIYLGGPFC
# T19: mCRP (199) (human)
# T19 peptide: SPNVLNWRALC
# T20: mCRP (209) (human)
# T20 peptide: KYEVQGEVFTKPQLWPC
# T21: mCRP (31-60) (human)
# T21 peptide: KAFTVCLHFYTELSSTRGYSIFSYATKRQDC
# T22: mCRP (61-90) (human)
# T22 peptide: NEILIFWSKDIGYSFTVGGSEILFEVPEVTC
# T23: mCRP (121-150) (human)
# T23 peptide: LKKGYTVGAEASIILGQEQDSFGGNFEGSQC
# T24: mCRP (151-180) (human)
# T24 peptide: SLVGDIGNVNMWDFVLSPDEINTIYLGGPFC
# T25: mCRP (181-206) (human)
# T25 peptide: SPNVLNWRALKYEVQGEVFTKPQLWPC
# Legend:
# Assay in all cases: ELISA on immobilised peptide, antibody 1 ug/mL
# mCRP (19) = molecular target: T1, mCRP (19)
# Excerpt: (§1) The following materials were used as materials for epitope analysis. [0156] (a) Plate: Immunoplate for ELISA (96 well) manufactured by Nunc [0157] […] (c) Solid-phase buffer: 0.1 M carbonate buffer pH 9.5 (IBL) [0159] (d) Antiserum dilution buffer: 1% BSA, 0.05% Tween-20 (Kanto Chemical Co., Inc.) in PBS [0160] (e) Labeled antibody dilution buffer: 1% BSA, 0.05% Tween-20 in PBS [0161] (f) Washing buffer: 0.05% Tween-20 in 0.1 M PB [0162] (g) Substrate buffer: K₂HPO₄-citrate buffer (pH 5.1) (IBL) [0163] (h) Reaction stop solution: 1 mol/L-H₂SO₄ (Wako Pure Chemical Industries, Ltd.)
# (§2) Epitope analysis was performed by the following procedure. [0166] (a) Peptides were immobilized on a plate by standing at 50 ng/well (50 μL/well) for 16 hours at 4° C. […] (b) Solid phase peptides were washed twice with Dulbecco's PBS (D-PBS) (200 μL/well). [0168] (c) Blocking was performed by adding 200 μL of D-PBS containing 0.1% BSA and 0.05% NaN₃ to each well and leaving it at 4° C. overnight. [0169] (d) Each well was washed twice with the washing buffer. [0170] (e) The antibody was diluted to 1 μg/mL with the dilution buffer and the diluted solution was added to each well (50 μL/well) and left at 37° C. for 30 minutes. [0171] (f) Each well was washed four or more times with the washing buffer. [0172] (g) Anti-mouse IgG (γ-specific)-HRP, a labeled antibody, was added to each well (50 μL/well) and left at 37° C. for 30 minutes. [0173] (h) Each well was washed four or more times with the washing buffer. [0174] (i) A chromogenic reaction was started by adding a substrate solution (400 μg/mL) to each well (100 μL/well), and the reaction was allowed to proceed for 15 minutes at room temperature in the dark. [0175] (j) After 15 minutes, the reaction was stopped by addition of 1 mol/L sulfuric acid (100 μL/well), and absorbance (490 nm) was measured.
# mCRP (29) = molecular target: T2, mCRP (29)
# Excerpt: as §1, §2
# mCRP (39) = molecular target: T3, mCRP (39)
# Excerpt: as §1, §2
# mCRP (49) = molecular target: T4, mCRP (49)
# Excerpt: as §1, §2
# mCRP (59) = molecular target: T5, mCRP (59)
# Excerpt: as §1, §2
# mCRP (69) = molecular target: T6, mCRP (69)
# Excerpt: as §1, §2
# mCRP (79) = molecular target: T7, mCRP (79)
# Excerpt: as §1, §2
# mCRP (89) = molecular target: T8, mCRP (89)
# Excerpt: as §1, §2
# mCRP (99) = molecular target: T9, mCRP (99)
# Excerpt: as §1, §2
# mCRP (109) = molecular target: T10, mCRP (109)
# Excerpt: as §1, §2
# mCRP (119) = molecular target: T11, mCRP (119)
# Excerpt: as §1, §2
# mCRP (129) = molecular target: T12, mCRP (129)
# Excerpt: as §1, §2
# mCRP (139) = molecular target: T13, mCRP (139)
# Excerpt: as §1, §2
# mCRP (149) = molecular target: T14, mCRP (149)
# Excerpt: as §1, §2
# mCRP (159) = molecular target: T15, mCRP (159)
# Excerpt: as §1, §2
# mCRP (169) = molecular target: T16, mCRP (169)
# Excerpt: as §1, §2
# mCRP (179) = molecular target: T17, mCRP (179)
# Excerpt: as §1, §2
# mCRP (189) = molecular target: T18, mCRP (189)
# Excerpt: as §1, §2
# mCRP (199) = molecular target: T19, mCRP (199)
# Excerpt: as §1, §2
# mCRP (209) = molecular target: T20, mCRP (209)
# Excerpt: as §1, §2
# mCRP (31-60) = molecular target: T21, mCRP (31-60)
# mCRP (61-90) = molecular target: T22, mCRP (61-90)
# mCRP (121-150) = molecular target: T23, mCRP (121-150)
# mCRP (151-180) = molecular target: T24, mCRP (151-180)
# mCRP (181-206) = molecular target: T25, mCRP (181-206)
binder,measurement,setting,value
"human denatured CRP-specific antibody produced from hybridoma mCRP-3C (antibody, mouse IgG2b, V domains shown, Mouse IgG2b, kappa; also called 3C antibody) VH: QVQLQQSGAELVRPGASVKLSCKALDYTFTDYEMHWVKQTPVHGLEWIGAIHPGRGGTAYNQKFKGKATLTADKSSSTAYMELSSLTSEDSGVYYCTSYHGGYWGQGTTLTVSS VL: DVVMTQTPLSLPVSLGDQASISCRSSQSLVHSNENTYLLWYLQKPGQSPKLLIYKVSNRFSGVPDRFSGSGSGTDFTLKISRVEAEDLGVYFCSQTTHVPWTFGGGTKLEIKR",absorbance (490 nm),mCRP (19),0.004
same,absorbance (490 nm),mCRP (29),-0.001
same,absorbance (490 nm),mCRP (39),0.001
same,absorbance (490 nm),mCRP (49),0
same,absorbance (490 nm),mCRP (59),0.001
same,absorbance (490 nm),mCRP (69),0.002
same,absorbance (490 nm),mCRP (79),0
same,absorbance (490 nm),mCRP (89),0
same,absorbance (490 nm),mCRP (99),1.58
same,absorbance (490 nm),mCRP (109),-0.001
same,absorbance (490 nm),mCRP (119),0.005
same,absorbance (490 nm),mCRP (129),0.002
same,absorbance (490 nm),mCRP (139),0.002
same,absorbance (490 nm),mCRP (149),0.001
same,absorbance (490 nm),mCRP (159),0.002
same,absorbance (490 nm),mCRP (169),0.001
same,absorbance (490 nm),mCRP (179),0.003
same,absorbance (490 nm),mCRP (189),0.007
same,absorbance (490 nm),mCRP (199),0.006
same,absorbance (490 nm),mCRP (209),0
same,absorbance (490 nm),mCRP (31-60),0.03
same,absorbance (490 nm),mCRP (61-90),1.98
same,absorbance (490 nm),mCRP (121-150),0.017
same,absorbance (490 nm),mCRP (151-180),0.108
same,absorbance (490 nm),mCRP (181-206),0.006
